One series has as its target His28 (UniProt position 50, AFGRAHGKCMN). The note with it: free toxin (inferred); cited from earlier work.
The target in series [1] is rKv1.3 (rat) (UniProt P15384).
Series [2] deals with Shaker IR (Drosophila) (UniProt P08510).
In series [3] the target is rKv1.2 (rat) (UniProt P63142).
Series [4] has as its target rKv1.3 (rat) (UniProt P15384). The source holds these as a separate data set.
Series [5] concerns the target Shaker IR (Drosophila) (UniProt P08510). The source holds these as a separate data set.
The target in series [6] is rKv1.2 (rat) (UniProt P63142). The source holds these as a separate data set.
The target in another series is rKv1.1 (rat) (UniProt P10499).
For a further series, the target named is rKv1.6 (rat) (UniProt P17659).
Sequence of rKv1.6 (rat) (P17659 whole entry): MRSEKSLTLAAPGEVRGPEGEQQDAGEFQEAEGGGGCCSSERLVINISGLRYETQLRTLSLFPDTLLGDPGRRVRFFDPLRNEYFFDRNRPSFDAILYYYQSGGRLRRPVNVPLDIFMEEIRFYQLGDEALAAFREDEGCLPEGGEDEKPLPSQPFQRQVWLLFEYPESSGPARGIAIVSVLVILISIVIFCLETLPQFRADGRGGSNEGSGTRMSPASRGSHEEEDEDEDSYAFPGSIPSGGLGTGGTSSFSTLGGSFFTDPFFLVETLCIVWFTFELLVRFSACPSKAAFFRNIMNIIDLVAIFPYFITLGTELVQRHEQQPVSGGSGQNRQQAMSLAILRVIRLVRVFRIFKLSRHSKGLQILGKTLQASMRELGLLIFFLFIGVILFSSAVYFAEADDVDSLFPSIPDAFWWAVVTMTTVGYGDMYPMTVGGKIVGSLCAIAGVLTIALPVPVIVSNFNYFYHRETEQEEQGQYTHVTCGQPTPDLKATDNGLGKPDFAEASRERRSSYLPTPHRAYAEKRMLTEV

Sequence of rKv1.3 (rat) (P15384 whole entry): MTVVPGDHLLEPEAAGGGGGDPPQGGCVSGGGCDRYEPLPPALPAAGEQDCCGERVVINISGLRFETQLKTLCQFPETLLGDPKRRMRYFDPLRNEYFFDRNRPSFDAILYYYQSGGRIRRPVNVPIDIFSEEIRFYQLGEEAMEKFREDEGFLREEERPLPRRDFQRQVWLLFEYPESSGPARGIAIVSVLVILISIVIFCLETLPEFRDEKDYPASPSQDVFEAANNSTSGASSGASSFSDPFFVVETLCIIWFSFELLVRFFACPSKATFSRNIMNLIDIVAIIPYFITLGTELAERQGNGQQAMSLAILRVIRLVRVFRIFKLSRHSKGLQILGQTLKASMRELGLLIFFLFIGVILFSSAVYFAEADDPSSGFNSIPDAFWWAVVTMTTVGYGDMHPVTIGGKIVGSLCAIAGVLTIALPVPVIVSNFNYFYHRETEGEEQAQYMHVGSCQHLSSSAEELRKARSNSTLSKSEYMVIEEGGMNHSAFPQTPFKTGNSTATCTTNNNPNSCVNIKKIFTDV
Sequence of Shaker IR (Drosophila) (P08510 whole entry): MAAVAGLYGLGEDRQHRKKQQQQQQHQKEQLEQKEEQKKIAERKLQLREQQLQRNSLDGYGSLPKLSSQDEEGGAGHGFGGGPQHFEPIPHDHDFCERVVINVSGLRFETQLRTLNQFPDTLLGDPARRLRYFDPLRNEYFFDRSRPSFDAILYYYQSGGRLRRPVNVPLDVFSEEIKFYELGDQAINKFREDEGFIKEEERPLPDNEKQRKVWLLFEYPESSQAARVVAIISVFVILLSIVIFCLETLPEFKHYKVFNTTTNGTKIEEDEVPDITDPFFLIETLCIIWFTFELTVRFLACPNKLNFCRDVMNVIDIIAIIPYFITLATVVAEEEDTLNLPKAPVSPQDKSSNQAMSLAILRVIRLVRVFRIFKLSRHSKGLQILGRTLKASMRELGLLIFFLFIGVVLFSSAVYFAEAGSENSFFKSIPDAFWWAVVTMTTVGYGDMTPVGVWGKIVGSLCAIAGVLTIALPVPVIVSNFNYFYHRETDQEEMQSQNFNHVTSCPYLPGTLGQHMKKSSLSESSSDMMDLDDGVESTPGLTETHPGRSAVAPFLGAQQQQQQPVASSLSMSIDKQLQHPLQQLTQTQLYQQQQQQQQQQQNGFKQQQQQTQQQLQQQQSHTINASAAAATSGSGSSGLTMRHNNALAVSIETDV
Sequence of rKv1.2 (rat) (P63142 whole entry): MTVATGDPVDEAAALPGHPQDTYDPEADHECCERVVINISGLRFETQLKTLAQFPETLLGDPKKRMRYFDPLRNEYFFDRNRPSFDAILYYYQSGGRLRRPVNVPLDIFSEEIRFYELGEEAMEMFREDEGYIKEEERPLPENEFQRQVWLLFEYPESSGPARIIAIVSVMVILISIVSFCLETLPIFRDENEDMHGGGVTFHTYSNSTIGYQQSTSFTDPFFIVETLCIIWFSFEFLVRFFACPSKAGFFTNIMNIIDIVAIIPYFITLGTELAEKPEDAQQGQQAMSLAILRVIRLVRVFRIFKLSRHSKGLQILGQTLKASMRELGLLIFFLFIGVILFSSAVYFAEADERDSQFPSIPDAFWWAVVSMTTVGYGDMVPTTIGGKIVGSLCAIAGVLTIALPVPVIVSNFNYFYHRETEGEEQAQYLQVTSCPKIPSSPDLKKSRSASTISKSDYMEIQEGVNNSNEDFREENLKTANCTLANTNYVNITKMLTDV
Sequence of rKv1.1 (rat) (P10499 whole entry): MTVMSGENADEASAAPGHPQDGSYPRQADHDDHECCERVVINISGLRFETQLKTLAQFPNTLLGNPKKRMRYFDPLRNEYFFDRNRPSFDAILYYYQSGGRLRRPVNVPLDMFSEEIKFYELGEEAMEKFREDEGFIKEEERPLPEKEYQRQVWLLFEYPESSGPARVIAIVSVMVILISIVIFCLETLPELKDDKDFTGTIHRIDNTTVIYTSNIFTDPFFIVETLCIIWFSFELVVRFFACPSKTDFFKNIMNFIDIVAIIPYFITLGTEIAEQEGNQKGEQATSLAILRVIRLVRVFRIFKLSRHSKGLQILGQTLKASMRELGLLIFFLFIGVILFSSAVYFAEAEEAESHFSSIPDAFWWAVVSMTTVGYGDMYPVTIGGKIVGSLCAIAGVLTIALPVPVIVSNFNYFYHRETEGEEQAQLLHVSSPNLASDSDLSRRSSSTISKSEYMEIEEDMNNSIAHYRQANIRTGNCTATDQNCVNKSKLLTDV

Regarding “Ts6 (alpha-KTx12.1, TsTX-IV, butantoxin) (Tityus serrulatus)”, the pKa (commonly the pH at which an ionisable group is half protonated) with His28 is recorded as 5.2.
Turning to “Ts6 (from UniProt P59936 23-62) (peptide)”, the blocking effect on the K+ current at 1 µM Ts6, two-microelectrode voltage clamp on Xenopus oocytes with rKv1.3 (rat) [1] was found to be 98%; with Shaker IR (Drosophila) [2] it was 79%; with rKv1.2 (rat) [3], 86%.
For “Ts7 (from UniProt P46114 23-59) (peptide)”, the blocking effect on the K+ current at 1 µM Ts7, two-microelectrode voltage clamp on Xenopus oocytes turned out to be 89% with rKv1.3 (rat) [4]; 97% with Shaker IR (Drosophila) [5]; 91% with rKv1.2 (rat) [6]; 85% with rKv1.1 (rat); 94% with rKv1.6 (rat).

The values above are taken from PMC3968367.
